We go through one substance from publication PMC8933513 (2022).

What all share (assay): SPR; BIAcore X-100, room temperature; hAPN/pAPN WT or mutant immobilised on CM5 chips via amine coupling; serially diluted PDCoV RBD WT or mutant flowed over in HEPES buffer (0.01 M HEPES, 0.15 M NaCl, 0.5% surfactant P20, 3 mM EDTA, pH 7.4); steady-state affinity model; each of two experiments listed
In general terms: SPR reads the build-up and loss of mass on a sensor chip optically.

Assay [1] deals with human aminopeptidase N ectodomain E742A (human) (UniProt P15144).
Assay [2] concerns the target human aminopeptidase N ectodomain E745A (human) (UniProt P15144).
Assay [3] addresses porcine aminopeptidase N ectodomain, wild type (pig) (UniProt P15145).
Assay [4] addresses human aminopeptidase N ectodomain Y316A (human) (UniProt P15144).
Assay [5] has as its target porcine aminopeptidase N ectodomain W424A (pig) (UniProt P15145).
Assay [6] concerns the target porcine aminopeptidase N ectodomain E421A (pig) (UniProt P15145).
Assay [7] concerns the target human aminopeptidase N ectodomain H789A (human) (UniProt P15144).
Assay [8] addresses human aminopeptidase N ectodomain, wild type (human) (UniProt P15144).
Assay [9] has as its target human aminopeptidase N ectodomain K379A (human) (UniProt P15144).
The target of assay [10] is human aminopeptidase N ectodomain W429A (human) (UniProt P15144).
Assay [11] deals with human aminopeptidase N ectodomain E426A (human) (UniProt P15144).

Values joined by “and” are separate entries in the source; they are usually repeats but may differ in a detail not shown here. Identical values can stand only once.

Chain of human aminopeptidase N ectodomain E426A (human) (P15144 62-963 E426A): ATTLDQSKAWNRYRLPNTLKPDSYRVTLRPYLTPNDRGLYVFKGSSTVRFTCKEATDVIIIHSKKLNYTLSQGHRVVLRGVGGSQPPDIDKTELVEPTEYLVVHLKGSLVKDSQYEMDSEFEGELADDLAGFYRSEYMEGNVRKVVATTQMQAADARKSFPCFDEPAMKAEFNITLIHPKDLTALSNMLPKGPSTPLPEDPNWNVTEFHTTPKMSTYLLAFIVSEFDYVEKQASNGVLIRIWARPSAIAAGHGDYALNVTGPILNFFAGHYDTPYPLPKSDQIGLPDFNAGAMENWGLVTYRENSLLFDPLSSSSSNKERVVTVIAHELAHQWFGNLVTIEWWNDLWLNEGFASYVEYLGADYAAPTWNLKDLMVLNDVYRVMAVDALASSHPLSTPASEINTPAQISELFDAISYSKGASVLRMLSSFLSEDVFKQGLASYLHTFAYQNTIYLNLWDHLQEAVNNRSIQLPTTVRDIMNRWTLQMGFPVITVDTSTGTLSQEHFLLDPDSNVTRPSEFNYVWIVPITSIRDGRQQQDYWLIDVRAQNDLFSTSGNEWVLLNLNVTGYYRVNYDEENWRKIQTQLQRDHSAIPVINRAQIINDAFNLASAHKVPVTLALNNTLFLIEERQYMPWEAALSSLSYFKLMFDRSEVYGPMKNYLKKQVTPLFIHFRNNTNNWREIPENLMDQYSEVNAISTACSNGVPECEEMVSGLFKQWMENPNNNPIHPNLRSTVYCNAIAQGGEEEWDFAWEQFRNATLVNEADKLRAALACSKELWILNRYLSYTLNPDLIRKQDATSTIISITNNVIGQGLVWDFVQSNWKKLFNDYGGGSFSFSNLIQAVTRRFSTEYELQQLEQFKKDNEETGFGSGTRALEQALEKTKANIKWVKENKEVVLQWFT
Chain of porcine aminopeptidase N ectodomain, wild type (pig) (P15145 58-961): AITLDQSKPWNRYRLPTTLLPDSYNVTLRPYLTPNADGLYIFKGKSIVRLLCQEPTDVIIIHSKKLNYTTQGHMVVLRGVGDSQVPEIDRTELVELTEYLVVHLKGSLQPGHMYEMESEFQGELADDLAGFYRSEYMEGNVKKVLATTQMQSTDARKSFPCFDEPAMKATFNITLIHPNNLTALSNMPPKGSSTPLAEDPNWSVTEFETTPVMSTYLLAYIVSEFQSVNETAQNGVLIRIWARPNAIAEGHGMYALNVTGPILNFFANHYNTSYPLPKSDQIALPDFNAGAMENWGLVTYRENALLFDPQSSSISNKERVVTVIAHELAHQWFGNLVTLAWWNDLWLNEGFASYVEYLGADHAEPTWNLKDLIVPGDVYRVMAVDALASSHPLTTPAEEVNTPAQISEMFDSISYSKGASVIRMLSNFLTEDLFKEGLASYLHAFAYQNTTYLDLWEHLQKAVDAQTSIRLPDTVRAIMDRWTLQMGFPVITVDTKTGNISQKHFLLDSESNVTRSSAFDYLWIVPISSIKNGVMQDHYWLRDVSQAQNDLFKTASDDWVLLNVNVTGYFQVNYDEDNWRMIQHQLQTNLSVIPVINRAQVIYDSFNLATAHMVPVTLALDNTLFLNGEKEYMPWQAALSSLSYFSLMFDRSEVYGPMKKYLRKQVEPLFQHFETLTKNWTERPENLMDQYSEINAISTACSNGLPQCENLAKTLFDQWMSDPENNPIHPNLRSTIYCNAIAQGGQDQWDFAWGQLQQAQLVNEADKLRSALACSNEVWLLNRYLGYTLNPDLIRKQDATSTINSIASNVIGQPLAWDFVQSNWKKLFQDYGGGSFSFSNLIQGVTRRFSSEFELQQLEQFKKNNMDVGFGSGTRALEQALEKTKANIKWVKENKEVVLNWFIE
Chain of porcine aminopeptidase N ectodomain E421A (pig) (P15145 58-961 E421A): as the sequence (P15145 58-961) above, with E364A counted along it
Chain of human aminopeptidase N ectodomain E742A (human) (P15144 62-963 E742A): as the sequence (P15144 62-963 E426A) above, with A365E, E681A counted along it
Chain of human aminopeptidase N ectodomain E745A (human) (P15144 62-963 E745A): as the sequence (P15144 62-963 E426A) above, with A365E, E684A counted along it
Chain of human aminopeptidase N ectodomain, wild type (human) (P15144 62-963): as the sequence (P15144 62-963 E426A) above, with A365E counted along it
Chain of human aminopeptidase N ectodomain H789A (human) (P15144 62-963 H789A): as the sequence (P15144 62-963 E426A) above, with A365E, H728A counted along it
Chain of human aminopeptidase N ectodomain K379A (human) (P15144 62-963 K379A): as the sequence (P15144 62-963 E426A) above, with K318A, A365E counted along it
Chain of human aminopeptidase N ectodomain W429A (human) (P15144 62-963 W429A): as the sequence (P15144 62-963 E426A) above, with A365E, W368A counted along it
Chain of human aminopeptidase N ectodomain Y316A (human) (P15144 62-963 Y316A): as the sequence (P15144 62-963 E426A) above, with Y255A, A365E counted along it
Chain of porcine aminopeptidase N ectodomain W424A (pig) (P15145 58-961 W424A): as the sequence (P15145 58-961) above, with W367A counted along it

In the case of “PDCoV RBD (receptor binding domain of the porcine deltacoronavirus spike protein), wild type (domain or fragment)”, the dissociation constant (Kd) is 14.3 µM and 13.2 µM in [1]; 3.13 µM and 3 µM in assay [2]; 42 µM and 46.5 µM in [3]; 35.7 µM and 38.5 µM in assay [4]; 113 µM and 119 µM in [5]; 103 µM and 146 µM in assay [6]. Moreover, the Kd is 6.47 µM and 6.03 µM in assay [7]; 3.76 µM and 3.66 µM in [8]; 516 µM and 371 µM in assay [9]; 158 µM and 97 µM in assay [10]; 305 µM and 362 µM in [11].

In general, Kd refers to the equilibrium constant for the complex coming apart. Read a high Kd as a looser complex.
